Measured values taken from patent US20240118272A1.

Key:
[1] = target: CD81(ECD)-ALP conjugate (human; bovine); experiment: HI-1000 capture immunoassay; calibrator C1, 4 ng/mL; run 1
[2] = target: CD81(ECD)-ALP conjugate (human; bovine); experiment: HI-1000 capture immunoassay; calibrator C1, 4 ng/mL; run 2
[3] = target: CD81(ECD)-ALP conjugate (human; bovine); experiment: HI-1000 capture immunoassay; calibrator C1, 4 ng/mL; run 3
[4] = target: CD81(ECD)-ALP conjugate (human; bovine); experiment: HI-1000 capture immunoassay; calibrator C2, 20 ng/mL; run 1
[5] = target: CD81(ECD)-ALP conjugate (human; bovine); experiment: HI-1000 capture immunoassay; calibrator C2, 20 ng/mL; run 2
[6] = target: CD81(ECD)-ALP conjugate (human; bovine); experiment: HI-1000 capture immunoassay; calibrator C2, 20 ng/mL; run 3
[7] = target: CD81(ECD)-ALP conjugate (human; bovine); experiment: HI-1000 capture immunoassay; calibrator C3, 100 ng/mL; run 1
[8] = target: CD81(ECD)-ALP conjugate (human; bovine); experiment: HI-1000 capture immunoassay; calibrator C3, 100 ng/mL; run 2
[9] = target: CD81(ECD)-ALP conjugate (human; bovine); experiment: HI-1000 capture immunoassay; calibrator C3, 100 ng/mL; run 3
[10] = target: CD81(ECD)-ALP conjugate (human; bovine); experiment: HI-1000 capture immunoassay; calibrator C4, 500 ng/mL; run 1
[11] = target: CD81(ECD)-ALP conjugate (human; bovine); experiment: HI-1000 capture immunoassay; calibrator C4, 500 ng/mL; run 2
[12] = target: CD81(ECD)-ALP conjugate (human; bovine); experiment: HI-1000 capture immunoassay; calibrator C4, 500 ng/mL; run 3
[13] = target: CD81(ECD)-ALP conjugate (human; bovine); experiment: HI-1000 capture immunoassay; calibrator C1, 3.45 mU/L; run 1
[14] = target: CD81(ECD)-ALP conjugate (human; bovine); experiment: HI-1000 capture immunoassay; calibrator C1, 3.45 mU/L; run 2
[15] = target: CD81(ECD)-ALP conjugate (human; bovine); experiment: HI-1000 capture immunoassay; calibrator C1, 3.45 mU/L; run 3
[16] = target: CD81(ECD)-ALP conjugate (human; bovine); experiment: HI-1000 capture immunoassay; calibrator C5, 2500 ng/mL; run 1
[17] = target: CD81(ECD)-ALP conjugate (human; bovine); experiment: HI-1000 capture immunoassay; calibrator C5, 2500 ng/mL; run 2
[18] = target: CD81(ECD)-ALP conjugate (human; bovine); experiment: HI-1000 capture immunoassay; calibrator C5, 2500 ng/mL; run 3
[19] = target: CD81(ECD)-ALP conjugate (human; bovine); experiment: HI-1000 capture immunoassay; calibrator C2, 13.80 mU/L; run 1
[20] = target: CD81(ECD)-ALP conjugate (human; bovine); experiment: HI-1000 capture immunoassay; calibrator C2, 13.80 mU/L; run 2
[21] = target: CD81(ECD)-ALP conjugate (human; bovine); experiment: HI-1000 capture immunoassay; calibrator C2, 13.80 mU/L; run 3
[22] = target: CD81(ECD)-ALP conjugate (human; bovine); experiment: HI-1000 capture immunoassay; calibrator C3, 55.20 mU/L; run 1
[23] = target: CD81(ECD)-ALP conjugate (human; bovine); experiment: HI-1000 capture immunoassay; calibrator C3, 55.20 mU/L; run 2
[24] = target: CD81(ECD)-ALP conjugate (human; bovine); experiment: HI-1000 capture immunoassay; calibrator C3, 55.20 mU/L; run 3
[25] = target: CD81(ECD)-ALP conjugate (human; bovine); experiment: HI-1000 capture immunoassay; calibrator C1, 4 ng/mL; mean of 3
[26] = target: CD81(ECD)-ALP conjugate (human; bovine); experiment: HI-1000 capture immunoassay; calibrator C4, 220.80 mU/L; run 1
[27] = target: CD81(ECD)-ALP conjugate (human; bovine); experiment: HI-1000 capture immunoassay; calibrator C4, 220.80 mU/L; run 2
[28] = target: CD81(ECD)-ALP conjugate (human; bovine); experiment: HI-1000 capture immunoassay; calibrator C4, 220.80 mU/L; run 3
[29] = target: CD81(ECD)-ALP conjugate (human; bovine); experiment: HI-1000 capture immunoassay; calibrator C5, 883.16 mU/L; run 1
[30] = target: CD81(ECD)-ALP conjugate (human; bovine); experiment: HI-1000 capture immunoassay; calibrator C5, 883.16 mU/L; run 2
[31] = target: CD81(ECD)-ALP conjugate (human; bovine); experiment: HI-1000 capture immunoassay; calibrator C5, 883.16 mU/L; run 3
[32] = target: CD81(ECD)-ALP conjugate (human; bovine); experiment: HI-1000 capture immunoassay; calibrator C2, 20 ng/mL; mean of 3
[33] = target: CD81(ECD)-ALP conjugate (human; bovine); experiment: HI-1000 capture immunoassay; calibrator C3, 100 ng/mL; mean of 3
[34] = target: CD81(ECD)-ALP conjugate (human; bovine); experiment: HI-1000 capture immunoassay; calibrator C4, 500 ng/mL; mean of 3
[35] = target: CD81(ECD)-ALP conjugate (human; bovine); experiment: HI-1000 capture immunoassay; calibrator C1, 3.45 mU/L; mean of 3
[36] = target: CD81(ECD)-ALP conjugate (human; bovine); experiment: HI-1000 capture immunoassay; calibrator C5, 2500 ng/mL; mean of 3
[37] = target: CD81(ECD)-ALP conjugate (human; bovine); experiment: HI-1000 capture immunoassay; calibrator C2, 13.80 mU/L; mean of 3
[38] = target: CD81(ECD)-ALP conjugate (human; bovine); experiment: HI-1000 capture immunoassay; calibrator C3, 55.20 mU/L; mean of 3
[39] = target: CD81(ECD)-ALP conjugate (human; bovine); experiment: HI-1000 capture immunoassay; calibrator C4, 220.80 mU/L; mean of 3
[40] = target: CD81(ECD)-ALP conjugate (human; bovine); experiment: HI-1000 capture immunoassay; calibrator C5, 883.16 mU/L; mean of 3

Sequence of CD81(ECD)-ALP conjugate (human; bovine) (chain, as listed by the source, chain 1 of 2): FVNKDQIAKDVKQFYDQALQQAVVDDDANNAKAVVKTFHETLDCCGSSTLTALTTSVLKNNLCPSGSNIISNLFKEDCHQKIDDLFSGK
Sequence of CD81(ECD)-ALP conjugate (human; bovine) (P19111 20-506, chain 2 of 2): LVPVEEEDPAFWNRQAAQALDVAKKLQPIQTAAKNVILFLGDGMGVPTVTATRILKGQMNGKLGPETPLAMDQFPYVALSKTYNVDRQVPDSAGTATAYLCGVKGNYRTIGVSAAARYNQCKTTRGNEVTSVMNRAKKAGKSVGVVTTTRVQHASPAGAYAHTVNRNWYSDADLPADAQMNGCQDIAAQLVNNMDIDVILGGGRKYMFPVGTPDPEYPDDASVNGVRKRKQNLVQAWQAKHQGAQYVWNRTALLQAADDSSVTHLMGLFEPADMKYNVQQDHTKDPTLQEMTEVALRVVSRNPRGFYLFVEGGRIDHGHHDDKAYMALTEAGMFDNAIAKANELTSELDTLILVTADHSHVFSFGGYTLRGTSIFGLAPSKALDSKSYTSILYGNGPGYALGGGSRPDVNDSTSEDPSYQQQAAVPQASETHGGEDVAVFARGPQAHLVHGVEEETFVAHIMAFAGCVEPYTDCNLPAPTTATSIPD

Count value [1]: 1270 count
Count value [2]: 1300 count
Count value [3]: 1280 count
Count value [4]: 4480 count
Count value [5]: 4380 count
Count value [6]: 4640 count
Count value [7]: 20000 count
Count value [8]: 20000 count
Count value [9]: 19600 count
Count value [10]: 101000 count
Count value [11]: 100000 count
Count value [12]: 99600 count
Count value [13]: 1380 count
Count value [14]: 1430 count
Count value [15]: 1340 count
Count value [16]: 498000 count
Count value [17]: 496000 count
Count value [18]: 486000 count
Count value [19]: 4650 count
Count value [20]: 4600 count
Count value [21]: 4610 count
Count value [22]: 20900 count
Count value [23]: 20400 count
Count value [24]: 20900 count
Count value (av) [25]: 1280 count
Count value [26]: 105000 count
Count value [27]: 99500 count
Count value [28]: 102000 count
Count value [29]: 503000 count
Count value [30]: 496000 count
Count value [31]: 494000 count
Count value (av) [32]: 4500 count
Count value (av) [33]: 19900 count
Count value (av) [34]: 100000 count
Count value (av) [35]: 1380 count
Count value (av) [36]: 494000 count
Count value (av) [37]: 4620 count
Count value (av) [38]: 20700 count
Count value (av) [39]: 102000 count
Count value (av) [40]: 498000 count
Substance: anti-CD81 antibody (Clone: 5A6)
